In publication PMC5651801 one finds stoichiometry N data, which are given here for 1 substance.

In the assay the target is 4-HIL dehydrogenase (HILDH) from Bacillus thuringiensis 2e2, wild type (Bacillus thuringiensis 2e2). Briefly: crystal structure; HILDH with 10 mM NADH, sitting-drop vapor diffusion at 20 °C, 30% PEG 400, 0.1 M acetate pH 4.5, 0.2 M calcium acetate; 2.20 Å.

Take “4-HIL dehydrogenase (HILDH) from Bacillus thuringiensis 2e2, wild type (enzyme)”: the stoichiometry N – broadly, the number of molecules, sites or subunits per partner or assembly – is 4.
